{"source": "paper PMC8199477", "target": "urate oxidase from Deinococcus radiodurans (DrUox) (Deinococcus radiodurans R1)", "assay": "SEC; Superdex 200 (10/300) GL, 20 mM Tris-HCl pH 8.0, 100 mM NaCl, 0.5 mL/min; size by interpolation against protein markers"}
{"substance": "urate oxidase from Deinococcus radiodurans (DrUox) (enzyme)", "values": [{"measurement": "stoichiometry N", "result": 4}]}
